Test results from US12630600B2 (MEDIMMUNE LIMITED, priority 2022, dated 2026).
Starred links: 1 amine or outer side, 2 acyl side, 3 side chain; linkers in the order of their positions; H or OH if unused. Non-standard residues stand in square brackets, D forms with d. Groups on a side chain read outwards from the residue. No end group written: not given here. *: point of attachment. C20 diacid = O=C(O)CCCCCCCCCCCCCCCCCCC(=O)*; C18 diacid = O=C(O)CCCCCCCCCCCCCCCCC(=O)*; γGlu = O=C(O)[C@H](CCC(=O)[*:2])N[*:1]; αMeF = C[C@](N)(Cc1ccccc1)C(=O)O; AEEA = NCCOCCOCC(=O)O; Aib = CC(C)(N)C(=O)O

B1: Peptide 407 (peptide)
peptide: H[Aib]QGTFTSDVSK[αMeF]LDTK([AEEA-AEEA-γGlu-C20 diacid])RAQDFVRWLEA[Aib]G-OH
modifications: N-terminus assumed
SMILES: CC(C)C[C@H](NC(=O)[C@H](Cc1c[nH]c2ccccc12)NC(=O)[C@H](CCCNC(=N)N)NC(=O)[C@@H](NC(=O)[C@H](Cc1ccccc1)NC(=O)[C@H](CC(=O)O)NC(=O)[C@H](CCC(N)=O)NC(=O)[C@H](C)NC(=O)[C@H](CCCNC(=N)N)NC(=O)[C@H](CCCCNC(=O)COCCOCCNC(=O)COCCOCCNC(=O)CC[C@H](NC(=O)CCCCCCCCCCCCCCCCCCC(=O)O)C(=O)O)NC(=O)[C@@H](NC(=O)[C@H](CC(=O)O)NC(=O)[C@H](CC(C)C)NC(=O)[C@](C)(Cc1ccccc1)NC(=O)[C@H](CCCCN)NC(=O)[C@H](CO)NC(=O)[C@@H](NC(=O)[C@H](CC(=O)O)NC(=O)[C@H](CO)NC(=O)[C@@H](NC(=O)[C@H](Cc1ccccc1)NC(=O)[C@@H](NC(=O)CNC(=O)[C@H](CCC(N)=O)NC(=O)C(C)(C)NC(=O)[C@@H](N)Cc1c[nH]cn1)[C@@H](C)O)[C@@H](C)O)C(C)C)[C@@H](C)O)C(C)C)C(=O)N[C@@H](CCC(=O)O)C(=O)N[C@@H](C)C(=O)NC(C)(C)C(=O)NCC(=O)O
B2: Peptide 414 (peptide)
peptide: H[Aib]QGTFTSDVSK[αMeF]LDKK([AEEA-AEEA-γGlu-C18 diacid])RARDFVRWLL[Aib]E-OH
modifications: N-terminus assumed
SMILES: CC(C)C[C@H](NC(=O)[C@H](Cc1c[nH]c2ccccc12)NC(=O)[C@H](CCCNC(=N)N)NC(=O)[C@@H](NC(=O)[C@H](Cc1ccccc1)NC(=O)[C@H](CC(=O)O)NC(=O)[C@H](CCCNC(=N)N)NC(=O)[C@H](C)NC(=O)[C@H](CCCNC(=N)N)NC(=O)[C@H](CCCCNC(=O)COCCOCCNC(=O)COCCOCCNC(=O)CC[C@H](NC(=O)CCCCCCCCCCCCCCCCC(=O)O)C(=O)O)NC(=O)[C@H](CCCCN)NC(=O)[C@H](CC(=O)O)NC(=O)[C@H](CC(C)C)NC(=O)[C@](C)(Cc1ccccc1)NC(=O)[C@H](CCCCN)NC(=O)[C@H](CO)NC(=O)[C@@H](NC(=O)[C@H](CC(=O)O)NC(=O)[C@H](CO)NC(=O)[C@@H](NC(=O)[C@H](Cc1ccccc1)NC(=O)[C@@H](NC(=O)CNC(=O)[C@H](CCC(N)=O)NC(=O)C(C)(C)NC(=O)[C@@H](N)Cc1c[nH]cn1)[C@@H](C)O)[C@@H](C)O)C(C)C)C(C)C)C(=O)N[C@@H](CC(C)C)C(=O)NC(C)(C)C(=O)N[C@@H](CCC(=O)O)C(=O)O
B3: Peptide 411 (peptide)
peptide: H[Aib]QGTFTSDVSK[αMeF]LDTK([AEEA-AEEA-γGlu-C18 diacid])RAQDFVAWLEAGG-OH
modifications: N-terminus assumed
SMILES: CC(C)C[C@H](NC(=O)[C@H](Cc1c[nH]c2ccccc12)NC(=O)[C@H](C)NC(=O)[C@@H](NC(=O)[C@H](Cc1ccccc1)NC(=O)[C@H](CC(=O)O)NC(=O)[C@H](CCC(N)=O)NC(=O)[C@H](C)NC(=O)[C@H](CCCNC(=N)N)NC(=O)[C@H](CCCCNC(=O)COCCOCCNC(=O)COCCOCCNC(=O)CC[C@H](NC(=O)CCCCCCCCCCCCCCCCC(=O)O)C(=O)O)NC(=O)[C@@H](NC(=O)[C@H](CC(=O)O)NC(=O)[C@H](CC(C)C)NC(=O)[C@](C)(Cc1ccccc1)NC(=O)[C@H](CCCCN)NC(=O)[C@H](CO)NC(=O)[C@@H](NC(=O)[C@H](CC(=O)O)NC(=O)[C@H](CO)NC(=O)[C@@H](NC(=O)[C@H](Cc1ccccc1)NC(=O)[C@@H](NC(=O)CNC(=O)[C@H](CCC(N)=O)NC(=O)C(C)(C)NC(=O)[C@@H](N)Cc1c[nH]cn1)[C@@H](C)O)[C@@H](C)O)C(C)C)[C@@H](C)O)C(C)C)C(=O)N[C@@H](CCC(=O)O)C(=O)N[C@@H](C)C(=O)NCC(=O)NCC(=O)O
B4: Peptide 409 (peptide)
peptide: H[Aib]QGTFTSDVSK[αMeF]LDTK([AEEA-AEEA-γGlu-C18 diacid])RARDFVAWLL[Aib]TE-OH
modifications: N-terminus assumed
SMILES: CC(C)C[C@H](NC(=O)[C@H](Cc1c[nH]c2ccccc12)NC(=O)[C@H](C)NC(=O)[C@@H](NC(=O)[C@H](Cc1ccccc1)NC(=O)[C@H](CC(=O)O)NC(=O)[C@H](CCCNC(=N)N)NC(=O)[C@H](C)NC(=O)[C@H](CCCNC(=N)N)NC(=O)[C@H](CCCCNC(=O)COCCOCCNC(=O)COCCOCCNC(=O)CC[C@H](NC(=O)CCCCCCCCCCCCCCCCC(=O)O)C(=O)O)NC(=O)[C@@H](NC(=O)[C@H](CC(=O)O)NC(=O)[C@H](CC(C)C)NC(=O)[C@](C)(Cc1ccccc1)NC(=O)[C@H](CCCCN)NC(=O)[C@H](CO)NC(=O)[C@@H](NC(=O)[C@H](CC(=O)O)NC(=O)[C@H](CO)NC(=O)[C@@H](NC(=O)[C@H](Cc1ccccc1)NC(=O)[C@@H](NC(=O)CNC(=O)[C@H](CCC(N)=O)NC(=O)C(C)(C)NC(=O)[C@@H](N)Cc1c[nH]cn1)[C@@H](C)O)[C@@H](C)O)C(C)C)[C@@H](C)O)C(C)C)C(=O)N[C@@H](CC(C)C)C(=O)NC(C)(C)C(=O)N[C@H](C(=O)N[C@@H](CCC(=O)O)C(=O)O)[C@@H](C)O
B5: Peptide 410 (peptide)
peptide: H[Aib]QGTFTSDVSK[αMeF]LDTK([AEEA-AEEA-γGlu-C20 diacid])RARDFVAWLL[Aib]TE-OH
modifications: N-terminus assumed
SMILES: CC(C)C[C@H](NC(=O)[C@H](Cc1c[nH]c2ccccc12)NC(=O)[C@H](C)NC(=O)[C@@H](NC(=O)[C@H](Cc1ccccc1)NC(=O)[C@H](CC(=O)O)NC(=O)[C@H](CCCNC(=N)N)NC(=O)[C@H](C)NC(=O)[C@H](CCCNC(=N)N)NC(=O)[C@H](CCCCNC(=O)COCCOCCNC(=O)COCCOCCNC(=O)CC[C@H](NC(=O)CCCCCCCCCCCCCCCCCCC(=O)O)C(=O)O)NC(=O)[C@@H](NC(=O)[C@H](CC(=O)O)NC(=O)[C@H](CC(C)C)NC(=O)[C@](C)(Cc1ccccc1)NC(=O)[C@H](CCCCN)NC(=O)[C@H](CO)NC(=O)[C@@H](NC(=O)[C@H](CC(=O)O)NC(=O)[C@H](CO)NC(=O)[C@@H](NC(=O)[C@H](Cc1ccccc1)NC(=O)[C@@H](NC(=O)CNC(=O)[C@H](CCC(N)=O)NC(=O)C(C)(C)NC(=O)[C@@H](N)Cc1c[nH]cn1)[C@@H](C)O)[C@@H](C)O)C(C)C)[C@@H](C)O)C(C)C)C(=O)N[C@@H](CC(C)C)C(=O)NC(C)(C)C(=O)N[C@H](C(=O)N[C@@H](CCC(=O)O)C(=O)O)[C@@H](C)O
B6: Peptide 412 (peptide)
peptide: H[Aib]QGTFTSDVSK[αMeF]LDTK([AEEA-AEEA-γGlu-C20 diacid])RAQDFVAWLEAGG-OH
modifications: N-terminus assumed
SMILES: CC(C)C[C@H](NC(=O)[C@H](Cc1c[nH]c2ccccc12)NC(=O)[C@H](C)NC(=O)[C@@H](NC(=O)[C@H](Cc1ccccc1)NC(=O)[C@H](CC(=O)O)NC(=O)[C@H](CCC(N)=O)NC(=O)[C@H](C)NC(=O)[C@H](CCCNC(=N)N)NC(=O)[C@H](CCCCNC(=O)COCCOCCNC(=O)COCCOCCNC(=O)CC[C@H](NC(=O)CCCCCCCCCCCCCCCCCCC(=O)O)C(=O)O)NC(=O)[C@@H](NC(=O)[C@H](CC(=O)O)NC(=O)[C@H](CC(C)C)NC(=O)[C@](C)(Cc1ccccc1)NC(=O)[C@H](CCCCN)NC(=O)[C@H](CO)NC(=O)[C@@H](NC(=O)[C@H](CC(=O)O)NC(=O)[C@H](CO)NC(=O)[C@@H](NC(=O)[C@H](Cc1ccccc1)NC(=O)[C@@H](NC(=O)CNC(=O)[C@H](CCC(N)=O)NC(=O)C(C)(C)NC(=O)[C@@H](N)Cc1c[nH]cn1)[C@@H](C)O)[C@@H](C)O)C(C)C)[C@@H](C)O)C(C)C)C(=O)N[C@@H](CCC(=O)O)C(=O)N[C@@H](C)C(=O)NCC(=O)NCC(=O)O
B7: Peptide 408 (peptide)
peptide: H[Aib]QGTFTSDVSK[αMeF]LDTK([AEEA-AEEA-γGlu-γGlu-C20 diacid])RAQDFVRWLEA[Aib]G-OH
modifications: N-terminus assumed
SMILES: CC(C)C[C@H](NC(=O)[C@H](Cc1c[nH]c2ccccc12)NC(=O)[C@H](CCCNC(=N)N)NC(=O)[C@@H](NC(=O)[C@H](Cc1ccccc1)NC(=O)[C@H](CC(=O)O)NC(=O)[C@H](CCC(N)=O)NC(=O)[C@H](C)NC(=O)[C@H](CCCNC(=N)N)NC(=O)[C@H](CCCCNC(=O)COCCOCCNC(=O)COCCOCCNC(=O)CC[C@H](NC(=O)CC[C@H](NC(=O)CCCCCCCCCCCCCCCCCCC(=O)O)C(=O)O)C(=O)O)NC(=O)[C@@H](NC(=O)[C@H](CC(=O)O)NC(=O)[C@H](CC(C)C)NC(=O)[C@](C)(Cc1ccccc1)NC(=O)[C@H](CCCCN)NC(=O)[C@H](CO)NC(=O)[C@@H](NC(=O)[C@H](CC(=O)O)NC(=O)[C@H](CO)NC(=O)[C@@H](NC(=O)[C@H](Cc1ccccc1)NC(=O)[C@@H](NC(=O)CNC(=O)[C@H](CCC(N)=O)NC(=O)C(C)(C)NC(=O)[C@@H](N)Cc1c[nH]cn1)[C@@H](C)O)[C@@H](C)O)C(C)C)[C@@H](C)O)C(C)C)C(=O)N[C@@H](CCC(=O)O)C(=O)N[C@@H](C)C(=O)NC(C)(C)C(=O)NCC(=O)O

Target: human glucagon receptor (human, UniProt P47871)
Experiment: cell-based or functional assay

cAMP production EC50 | Binder
0.462 nM | B1
0.0269 nM | B2
1.02 nM | H[Aib]QGTFTSDVSK[αMeF]LDTK([AEEA-AEEA-γGlu-γGlu-C20 diacid])RAQDFVAWLEAGG-OH [Peptide 413]
0.378 nM | B3
0.203 nM | B4
0.455 nM | B5
0.397 nM | B6
0.828 nM | B7

Target: human GLP-1 receptor (human, UniProt P43220)
Experiment: cell-based or functional assay

cAMP production EC50 | Binder
0.209 nM | B1
0.0323 nM | B2
0.406 nM | H[Aib]QGTFTSDVSK[αMeF]LDTK([AEEA-AEEA-γGlu-γGlu-C20 diacid])RAQDFVAWLEAGG-OH [Peptide 413]
0.0981 nM | B3
0.0227 nM | B4
0.078 nM | B5
0.186 nM | B6
0.37 nM | B7
